# B1: BARB4: human IgG antibody produced by hybridoma DSMZ Deposit No. DSM ACC2876; heavy chain SEQ ID NOs:1, 3, 5, 7, light chain SEQ ID NO:9 (antibody, V domains shown)
# VH: QVQLVESGGGVVQPGRSLRLSCAASGFRFTTHGMHWVRQAPGKGLEWVAVISYNGRNKYYADYVNGRFTISRDDSRDTVFLQMNSLRPEDTAMYYCAKVRGDGYGDYGYFDYWGHGTLVSVSS
# VL: QSALTQPRSVSGSPGQSVTISCTGTYNYVSWYQQHPGKAPKLMIFDVSRRSSGVPDRFSGSKSGNTASLTISGLQAEDEADYYCCSYGGTYLYVFGTGTTVTVLGQ
# Tests used:
# [1] = system: malignant melanoma cells (HTB-69); experiment: FACS analysis of tumor cell binding; settings: 20 min on ice
# Procedure: (§1) To analyze tumor cell binding, pancreas cancer cells (BXPC-3), stomach cancer cells (23132/87), lung carcinoma cells (A549) and malignant melanoma cells (HTB-69 and CRL-1424) were grown to subconfluency in complete medium, detached with Trypsin/EDTA and incubated on ice for 1 h for recreation. Tumor cells were subsequently incubated on ice with BARB4 antibody (diluted in PBS containing 0.01% sodium azide), or human isotype-matched control antibody (Chrompure human IgG, Dianova, Hamburg, Germany) for 20 min on ice. Following incubation, cells were incubated with a FITC-labeled rabbit anti-human IgG antibody (1:50, Dako, Germany) for 20 min on ice, and cells were analyzed by flow cytometry (FACScan; Becton Dickinson, USA).
# [2] = system: stomach cancer cells (23132/87); experiment: FACS analysis of tumor cell binding; settings: 20 min on ice
# Procedure: as §1
# [3] = system: malignant melanoma cells (CRL-1424); experiment: FACS analysis of tumor cell binding; settings: 20 min on ice
# Procedure: as §1
# HeLa = experiment: FACS analysis of cell surface binding, BARB4 and commercial TAF 15 antibody; settings: BARB4 100 ug/ml, TAF 15 antibody 25 μg/ml
# Procedure: (§2) To further validate BARB4 target protein TAF 15, BARB4 and a commercial TAF 15 antibody (anti-human TAFII p68, Santa Cruz Biotechnology, sc-81121) were analyzed for binding to BxPC-3, HEK 293, A549 and HeLa cell lines. In brief, cells were trypsinized with cell dissociation solution (Sigma C5789), resuspended in complete medium (RPMI 1640, PAA, E15-039, 10% Fetal bovine serum, PAA, A15-151 and 1% Glutamine, PAA, M11-004) and set on 2×10^5/ml. After 30 minutes on ice, cells were dispersed at 1 ml per FACS-tube and washed once with ice-cold PBS by centrifugation with 500 g and 4° C. Staining was done with BARB4 (100 ug/ml) or the commercial TAF 15 (25 μg/ml) IgG antibodies, control IgGs (IgG lambda, or mouse IgG), or without antibody in 200 μl PBS. Cells were incubated with 25 μg/ml antibody in 100 μl for 30 minutes on ice, then washed with ice cold PBS and secondary antibody (anti mouse IgG-FITC, dianova 115-095-008) was applied at a dilution of 1:50 in 200 μl per tube. After another 30 minutes of incubation in the dark, cells were washed twice with PBS and analyzed by FACS. […] BARB4 target protein TAF 15 validation was then analyzed by immunoprecipitation of MKNcell extracts with BARB4 and subsequent Western blotting with either BARB4 or anti-TAF 15 antibodies (Biomol, A300-308A; or Aviva, ARP30111_T100).
# HEK 293 = experiment: as above; settings: BARB4 100 ug/ml, TAF 15 antibody 25 μg/ml
# Procedure: as §2
# [4] = system: BXPC-3 cells transfected with TAF 15 siRNA; experiment: FACS analysis after TAF 15 siRNA knockdown; type: binding, human; settings: BARB4 300 μg/ml
# Procedure: Before transfection, 24-well plates were inoculated with 0.5×10^4 BXPC-3 cells in growth medium (RPMI 1640 supplemented with […] and 1% (V/V) glutamine). The cells were incubated at 37° C. and a 7% CO2 atmosphere over night to reach a confluence of 50 to 70% the following day. 60 minutes prior to transfection, the medium was carefully aspirated from the wells and 250 μl (300 μl for nontransfected cells) fresh growth medium was added. For each well 50 μl transfection solution was prepared. First […] serum-free OptiMEM® I+GlutaMAX™-I (1×) medium (Invitrogen, Karlsruhe) supplemented with 0.5 μl siLentFect™Lipid Reagent (Biorad, München) was mixed. Afterwards 25 μl serum-free medium containing siGENOME SMARTpool siRNA (Dharmacon, Lafayette, USA) was prepared to achieve a final concentration of 100 nM siRNA. Both solutions were prepared separately. After five minutes they were added together and mixed by pipetting. […]
# FACS assays were done with transfected cells. […] At least 200 μl FACS buffer was added and cells were analyzed by flow cytometry (FACScan; Becton Dickinson, San Jose, Calif.) using WinMDI software. […]
# Mouse anti-human CD55 antibody (DAF; 1:1000; Acris, Hiddenhausen) was used to control protein expression of other cell surface membrane proteins. […] The cells were analyzed by flow cytometry (FACScan, Becton Dickinson, San Jose) and evaluated with WinMDI software.
molecule,measurement,setting,value
B1,tumor cell binding (FACS),[1],binds
same,tumor cell binding (FACS),[2],binds
same,tumor cell binding (FACS),[3],binds
same,FACS binding to the cell surface,HeLa,binding
same,FACS binding to the cell surface,HEK 293,binding
same,FACS binding to cells treated with siRNA against human TAF15 mRNA,[4]; 48 h after transfection,clearly reduced binding
same,FACS binding to untreated cells and cells treated with unrelated siRNA (negative control),[4]; after 48 h,binds
